Substitutions are numbered along the chain they refer to. Where two headings read alike, the source gives them in different places.
B1: GLP1R-3 (antibody, human IgG2, lambda, V domains shown)
VH: QVQLVESGGGVVQPGRSLRLSCAASGFTFSSYGMHWVRQAPGKGLEWVSFISYDESNKYYADSVKGRFTISRDNSKNTLYLQMNSLRAEDTAVYYCAKHMSMQEGAVTGEGQAAKEFIAWLVKGRVRADLVGDAFDVWGQGTLVTVSS
VL: QSVLTQPPSVSAAPGQKVTISCSGSSSNIADNYVSWYQQLPGTAPKLLIYDNNKRPSGIPDRFSGSKSGTSATLGITGLQTGDEADYYCGTWDNYLGAGVFGGGTKLTVLG
notes: full length human IgG2; also called GLP1R01-3
B2: GLP1R-222-056 (antibody, V domains shown)
VH: B1 VH with T28P, G33A, S49A, F50V, E55R, E110Y, R125F
VL: QSVLTQPPSVSAAPGQKVTISCSGSSSNIGSNYISWYQQLPGTAPKLLIYDNDKRPAGIPDRFSGSKSGTSATLGITGLQTGDEADYYCGTWDTSLSVGEFGGGTKLTVL
notes: IgG
B3: GLP1R-222-081 (antibody, V domains shown)
VH: B1 VH with S30D, S31N, G33A, M34L, S49A, F50L, E55A, S56G, R125F
VL: B2 VL with N32D, I34V, D53N, P56S, A57S, T94E, S97R, V98S, G99W, E100V
notes: IgG
B4: GLP1R-222-052 (antibody, V domains shown)
VH: B1 VH with S30N, S31N, G33P, S49A, F50V, E110G
VL: QSVLTQPPSVSAAPGQKVTISCSGSSSNIGKRSVSWYQQLPGTAPKLLIYDNNKRASGIPDRFSGSKSGTSATLGITGLQTGDEADYYCVTWDRSLSAGVFGGGTKLTVL
notes: IgG
B5: GLP1R-222-014 (antibody, V domains shown)
VH: B1 VH with T28A, S31N, S85N, G111W
VL: B4 VL with K31N, R32H, S33D, A56H, V90G, R94T
notes: IgG
B6: GLP1R-222-082 (antibody, V domains shown)
VH: B1 VH with S31A, G33S, S49A, F50L, E55A, S56T, G111F
VL: B4 VL with K31S, R32K, S33Y, A56P, V90G, R94I, L96P, G99W
notes: IgG
B7: GLP1R-222-023 (antibody, V domains shown)
VH: B1 VH with T28S, S31D, S49A, E55A, S56N, G111W
VL: B4 VL with K31N, R32N, S33D, D51E, N53T, A56P, V90G, R94A, S95G, A98T
notes: IgG
B8: GLP1R-222-073 (antibody, V domains shown)
VH: B1 VH with S30R, S31D, S49A, S52R, S56I, K123G
VL: B4 VL with S26G, K31N, R32N, S33D, V90G, S95G, L96P, S97N, A98T
notes: IgG
B9: GLP1R-222-090 (antibody, V domains shown)
VH: B1 VH with T28S, S31D, M34I, S49A, F50L, D54E, E55G, G111K
VL: B4 VL with G30A, K31D, R32N, S33Y, V90A, R94N, S95R
notes: IgG
B10: GLP1R-222-012 (antibody, V domains shown)
VH: B1 VH with S30N, S31N, S49A, F50V, Y53D, D54E, E55G, E110V
VL: B2 VL with S31N, Y33D, I34V, N52D, A57S
notes: IgG

What was measured:
[1] = target: T1, full length human GLP-1R with N-terminal FLAG tag and C-terminal GFP tag, on CHO cells (human, UniProt P43220 24-463); experiment: flow cytometry titration, CHO GLP1R cells
T1 construct: whole, on cells; the cell line itself is tied to UniProt P43220; also called FLAG-GLP-1R-GFP; CHO-GLP-1R
Protocol: (§1) GLP-1R IgG clones were tested in a binding assay coupled to flow cytometry analysis as follows: FLAG-GLP-1R-GFP expressing CHO cells (CHO-GLP-1R) and CHO-parent cells were incubated with 100 nM IgG for 1 h on ice, washed three times and incubated with Alexa 647 conjugated goat-anti-human antibody (1:200) (Jackson ImmunoResearch Laboratories, 109-605-044) for 30 min on ice, followed by three washes, centrifuging to pellet the cells between each washing step. All incubations and washes were in buffer containing PBS+1% BSA. […] Cells were analyzed by flow cytometry and hits (a hit is an IgG that specifically binds to CHO-GLP-1R) were identified by measuring the GFP signal against the Alexa 647 signal. Flow cytometry data of binding assays with 100 nM IgG are presented as dot plots. Analyses of binding assays with IgG titrations are presented as binding curves plotting IgG concentrations against MFI (mean fluorescence intensity).

[2] = target: T1, full length human GLP-1R with …; experiment: flow cytometry titration, CHO GLP1R cells; remark: listed apart in the source
Protocol: as §1

[3] = target: T1, full length human GLP-1R with …; experiment: flow cytometry, GLP1R-expressing CHO cells
Protocol: as §1

[4] = target: T1, full length human GLP-1R with …; experiment: flow cytometry, GLP1R-expressing CHO cells; remark: listed apart in the source
Protocol: as §1

[5] = target: T1, full length human GLP-1R with …; experiment: flow cytometry, expressing vs parent CHO cells
Protocol: as §1

[6] = target: T1, full length human GLP-1R with …; experiment: flow cytometry, expressing vs parent CHO cells; remark: listed apart in the source
Protocol: as §1

[7] = target: T1, full length human GLP-1R with …; experiment: flow cytometry, expressing vs parent CHO cells; remark: listed apart in the source
Protocol: as §1

[8] = target: T1, full length human GLP-1R with …; experiment: flow cytometry, expressing vs parent CHO cells; remark: listed apart in the source
Protocol: as §1

[9] = target: T1, full length human GLP-1R with …; experiment: flow cytometry, expressing minus parent CHO cells
Protocol: as §1

[10] = target: T1, full length human GLP-1R with …; experiment: flow cytometry, expressing minus parent CHO cells; remark: listed apart in the source
Protocol: as §1

| Binder | Bmax [1] | EC50 [1] [nM] | Bmax [2] | EC50 [2] [nM] | Median RL1-H of Expressing Singlets [3] | Median RL1-H of Expressing Singlets [4] | MFI Ratio [5] | MFI Ratio [6] | MFI Ratio [7] | MFI Ratio [8] | Subtraction [9] | Subtraction [10] |
| --- | --- | --- | --- | --- | --- | --- | --- | --- | --- | --- | --- | --- |
| B1 | 800000 | 11.5 | 153000 | 15.4 | 232000 | 224000 | 993 | 740 | 993 | 740 | 232000 | 224000 |
| B2 |  |  | 293000 | 77.4 |  | 218000 |  | 946 |  | 946 |  | 217000 |
| B3 |  |  | 194000 | 22.5 |  | 221000 |  | 850 |  | 850 |  | 221000 |
| B4 |  |  | 228000 | 17.4 |  | 378000 |  | 13.7 |  | 13.7 |  | 350000 |
| B5 |  |  | 213000 | 34.3 |  | 237000 |  | 794 |  | 794 |  | 237000 |
| B6 |  |  | 135000 | 11.5 |  | 224000 |  | 711 |  | 711 |  | 224000 |
| B7 |  |  | 220000 | 18.4 |  | 241000 |  | 778 |  | 778 |  | 241000 |
| B8 |  |  | 151000 | 13.1 |  | 225000 |  | 984 |  | 984 |  | 225000 |
| B9 |  |  | 1.08e+06 |  |  | 227000 |  | 525 |  | 525 |  | 227000 |
| B10 |  |  | 234000 | 23.1 |  | 225000 |  | 775 |  | 775 |  | 225000 |
